B1: ZNF263 (parent)
chain: QRTHTGEKPYKCPECGEIFAHSSN
B2: EPB41L3 (parent)
chain: SDYISEFRFAPNHTKELEDKVIEL

Variants of: B1
Test: protein stability index of a GFP-peptide fusion (GPS, HEK-293T) (PSI 1-6); higher = more stable
Settings: c terminus: a fixed tail appended
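Note: lentivirally expressed fusions sorted by FACS into six bins by GFP to DsRed ratio, PSI derived from sequencing read proportions per bin multiplied by bin number.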

Protein stability index, by site and new letter:
Q1: M 2.71, N 3.46, H 3.6, D 3.36
G16: H 3.31, F 2.92, M 3.45, P 4.06
G6: D 3.23, E 3.71, Q 3.49, S 3.38, W 2.74, H 3.33
T5: I 3.03, K 3, P 2.74, D 3.6, S 3.21
I18: F 2.97, K 3.83, R 3, A 3.48, H 3.29, P 3.43, N 3.79
H21: L 2.3, Q 3.43, D 2.5, R 3.16, I 2.05, K 3.78
Y10: G 3.48, V 3.93, W 3.46, S 3.98, H 3.7, M 3.66, N 4.17
P9: N 3.58, E 3.26, K 3.62, A 3.52, Q 3.25
N24: G 3.04, L 2.95, S 3.16, W 2.85, I 2.65, Q 3.65, K 3.99, M 2.75
C12: W 3.62, V 3.31, I 3.6, T 4.57, Y 4.3, A 4.27, R 4.2, M 4.35, L 3.77, N 4.45
R2: T 3.45, K 2.92, E 3.78, Y 3.02, I 3.32
E7: N 2.72, M 3.4
P13: K 3.59, I 3.57, D 4.34, S 3.41, L 3.56, A 3.78
F19: C 4.9, Y 3.7, R 3.75, Q 3.83, H 4.82
S23: C 5.55, K 3.79, F 2.81, W 2.36, R 2.77, M 2.81, H 4.71, A 3.61
S22: P 2.88, E 3.62, R 2.38, V 2.91, M 2.49, D 3.64, W 3.31, L 2.39
E17: F 4.53, L 2.6, M 3.27, A 4.67
K8: Y 3.34, W 3.3, R 3.74
H4: E 3.02, M 3.44, Y 2.77, R 3.58, L 3.4, V 2.85
A20: K 3.25, L 2.63, N 3.55, W 3.07, Y 3.49, H 3.45
K11: I 3.1, R 3.23, N 3.52
E14: N 4.24, A 4.22, H 3.82, R 3.77, K 3.75, P 3.52, I 3.25, W 2.63, C 3.71
T3: L 3.31, A 3.55, C 3.27
C15: S 4.29, G 4.96, Q 4.48

Variants of: B2
Test: as above
Settings: c terminus: a fixed tail appended

Protein stability index: each site, then its substitutions
E23: T 1.96, K 1.75, S 2.09, W 1.46, R 2.02, Y 2.38, Q 2.05, L 1.93, H 2.18, V 2.38, G 1.72, P 1.82, M 1.92, I 1.55, N 1.42
L24: D 3.11, A 2.42, Q 2.71, S 2.69, V 2.18, M 2.16, F 2.31, W 2.44, N 2.25, G 3.33, E 2.65, K 2.96, I 2.12, T 2.28, Y 2.08, R 2.69, H 2.65, C 3.05, P 2.31

— the supplement of paper PMC10567573
